In patent US20210139548A1 (published 2021):
*1 amine or outer side, *2 acyl side, *3 side chain or, on linkers, in order; H or OH if unused. Side-chain parts run from the residue outwards. The star is where a group is joined. C18 diacid = O=C(O)CCCCCCCCCCCCCCCCC(=O)*; γGlu = O=C(O)[C@H](CCC(=O)[*:2])N[*:1]; Isovaleryl = CC(C)CC(=O)*; AEEA = NCCOCCOCC(=O)O

Molecular target: T1, human neuropeptide Y2 receptor (human, UniProt P49146 1-381)
T1 construct: whole, on cells; also called hNPY2 receptor; hNPY2-R
T1 sequence (looked up): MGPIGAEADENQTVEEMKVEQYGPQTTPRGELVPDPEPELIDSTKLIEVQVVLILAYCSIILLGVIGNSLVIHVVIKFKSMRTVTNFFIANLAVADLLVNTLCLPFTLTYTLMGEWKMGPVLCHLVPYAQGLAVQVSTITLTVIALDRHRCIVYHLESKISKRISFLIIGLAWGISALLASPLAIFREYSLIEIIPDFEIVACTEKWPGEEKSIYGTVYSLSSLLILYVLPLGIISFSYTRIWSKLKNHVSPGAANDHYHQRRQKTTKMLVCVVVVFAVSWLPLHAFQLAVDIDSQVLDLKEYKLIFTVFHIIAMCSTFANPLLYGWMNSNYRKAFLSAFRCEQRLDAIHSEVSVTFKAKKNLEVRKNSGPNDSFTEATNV
Test: radioligand competition (125I-PYY(1-36)), hNPY2R membranes
Outline: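 Commercial human Y2 receptor membranes (0.5 μg protein/well) were incubated with peptide for 2 h at room temperature in 50 mM HEPES, 5 mM MgCl₂, 1 mM CaCl₂, pH 7.4, with 0.2% ovalbumin. Bound radioligand was separated on PEI-soaked GF/C filters and counted by scintillation, and IC₅₀ came from nonlinear sigmoidal regression.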

B1: Compound 89 (peptide)
peptide: Isovaleryl-APEK([AEEA-AEEA-γGlu-C18 diacid])PEEEAEPEELQRYYVSLRHYYNWLTRQRY-NH2
SMILES: CC(C)CC(=O)N[C@@H](C)C(=O)N1CCC[C@H]1C(=O)N[C@@H](CCC(=O)O)C(=O)N[C@@H](CCCCNC(=O)COCCOCCNC(=O)COCCOCCNC(=O)CC[C@H](NC(=O)CCCCCCCCCCCCCCCCC(=O)O)C(=O)O)C(=O)N1CCC[C@H]1C(=O)N[C@@H](CCC(=O)O)C(=O)N[C@@H](CCC(=O)O)C(=O)N[C@@H](CCC(=O)O)C(=O)N[C@@H](C)C(=O)N[C@@H](CCC(=O)O)C(=O)N1CCC[C@H]1C(=O)N[C@@H](CCC(=O)O)C(=O)N[C@@H](CCC(=O)O)C(=O)N[C@@H](CC(C)C)C(=O)N[C@@H](CCC(N)=O)C(=O)N[C@@H](CCCNC(=N)N)C(=O)N[C@@H](Cc1ccc(O)cc1)C(=O)N[C@@H](Cc1ccc(O)cc1)C(=O)N[C@H](C(=O)N[C@@H](CO)C(=O)N[C@@H](CC(C)C)C(=O)N[C@@H](CCCNC(=N)N)C(=O)N[C@@H](Cc1c[nH]cn1)C(=O)N[C@@H](Cc1ccc(O)cc1)C(=O)N[C@@H](Cc1ccc(O)cc1)C(=O)N[C@@H](CC(N)=O)C(=O)N[C@@H](Cc1c[nH]c2ccccc12)C(=O)N[C@@H](CC(C)C)C(=O)N[C@H](C(=O)N[C@@H](CCCNC(=N)N)C(=O)N[C@@H](CCC(N)=O)C(=O)N[C@@H](CCCNC(=N)N)C(=O)N[C@@H](Cc1ccc(O)cc1)C(N)=O)[C@@H](C)O)C(C)C
- Ki: 9.61 nM

B2: Compound 94 (peptide)
peptide: Isovaleryl-APEK([AEEA-AEEA-γGlu-C18 diacid])PEEDASPEETQRYYVELRHYYNWLTRQRY-NH2
SMILES: CC(C)CC(=O)N[C@@H](C)C(=O)N1CCC[C@H]1C(=O)N[C@@H](CCC(=O)O)C(=O)N[C@@H](CCCCNC(=O)COCCOCCNC(=O)COCCOCCNC(=O)CC[C@H](NC(=O)CCCCCCCCCCCCCCCCC(=O)O)C(=O)O)C(=O)N1CCC[C@H]1C(=O)N[C@@H](CCC(=O)O)C(=O)N[C@@H](CCC(=O)O)C(=O)N[C@@H](CC(=O)O)C(=O)N[C@@H](C)C(=O)N[C@@H](CO)C(=O)N1CCC[C@H]1C(=O)N[C@@H](CCC(=O)O)C(=O)N[C@@H](CCC(=O)O)C(=O)N[C@H](C(=O)N[C@@H](CCC(N)=O)C(=O)N[C@@H](CCCNC(=N)N)C(=O)N[C@@H](Cc1ccc(O)cc1)C(=O)N[C@@H](Cc1ccc(O)cc1)C(=O)N[C@H](C(=O)N[C@@H](CCC(=O)O)C(=O)N[C@@H](CC(C)C)C(=O)N[C@@H](CCCNC(=N)N)C(=O)N[C@@H](Cc1c[nH]cn1)C(=O)N[C@@H](Cc1ccc(O)cc1)C(=O)N[C@@H](Cc1ccc(O)cc1)C(=O)N[C@@H](CC(N)=O)C(=O)N[C@@H](Cc1c[nH]c2ccccc12)C(=O)N[C@@H](CC(C)C)C(=O)N[C@H](C(=O)N[C@@H](CCCNC(=N)N)C(=O)N[C@@H](CCC(N)=O)C(=O)N[C@@H](CCCNC(=N)N)C(=O)N[C@@H](Cc1ccc(O)cc1)C(N)=O)[C@@H](C)O)C(C)C)[C@@H](C)O
- Ki: 2.07 nM

B3: Compound 100 (peptide)
peptide: Isovaleryl-APAK([AEEA-AEEA-γGlu-C18 diacid])PPEDASPEELQRYYVSLRHYYNWLTRQRY-NH2
SMILES: CC(C)CC(=O)N[C@@H](C)C(=O)N1CCC[C@H]1C(=O)N[C@@H](C)C(=O)N[C@@H](CCCCNC(=O)COCCOCCNC(=O)COCCOCCNC(=O)CC[C@H](NC(=O)CCCCCCCCCCCCCCCCC(=O)O)C(=O)O)C(=O)N1CCC[C@H]1C(=O)N1CCC[C@H]1C(=O)N[C@@H](CCC(=O)O)C(=O)N[C@@H](CC(=O)O)C(=O)N[C@@H](C)C(=O)N[C@@H](CO)C(=O)N1CCC[C@H]1C(=O)N[C@@H](CCC(=O)O)C(=O)N[C@@H](CCC(=O)O)C(=O)N[C@@H](CC(C)C)C(=O)N[C@@H](CCC(N)=O)C(=O)N[C@@H](CCCNC(=N)N)C(=O)N[C@@H](Cc1ccc(O)cc1)C(=O)N[C@@H](Cc1ccc(O)cc1)C(=O)N[C@H](C(=O)N[C@@H](CO)C(=O)N[C@@H](CC(C)C)C(=O)N[C@@H](CCCNC(=N)N)C(=O)N[C@@H](Cc1c[nH]cn1)C(=O)N[C@@H](Cc1ccc(O)cc1)C(=O)N[C@@H](Cc1ccc(O)cc1)C(=O)N[C@@H](CC(N)=O)C(=O)N[C@@H](Cc1c[nH]c2ccccc12)C(=O)N[C@@H](CC(C)C)C(=O)N[C@H](C(=O)N[C@@H](CCCNC(=N)N)C(=O)N[C@@H](CCC(N)=O)C(=O)N[C@@H](CCCNC(=N)N)C(=O)N[C@@H](Cc1ccc(O)cc1)C(N)=O)[C@@H](C)O)C(C)C
- Ki: 0.44 nM

B4: Compound 92 (peptide)
peptide: Isovaleryl-APEK([AEEA-AEEA-γGlu-C18 diacid])PEEDTSPEELQRYYVSLRHYYNWLTRQRY-NH2
SMILES: CC(C)CC(=O)N[C@@H](C)C(=O)N1CCC[C@H]1C(=O)N[C@@H](CCC(=O)O)C(=O)N[C@@H](CCCCNC(=O)COCCOCCNC(=O)COCCOCCNC(=O)CC[C@H](NC(=O)CCCCCCCCCCCCCCCCC(=O)O)C(=O)O)C(=O)N1CCC[C@H]1C(=O)N[C@@H](CCC(=O)O)C(=O)N[C@@H](CCC(=O)O)C(=O)N[C@@H](CC(=O)O)C(=O)N[C@H](C(=O)N[C@@H](CO)C(=O)N1CCC[C@H]1C(=O)N[C@@H](CCC(=O)O)C(=O)N[C@@H](CCC(=O)O)C(=O)N[C@@H](CC(C)C)C(=O)N[C@@H](CCC(N)=O)C(=O)N[C@@H](CCCNC(=N)N)C(=O)N[C@@H](Cc1ccc(O)cc1)C(=O)N[C@@H](Cc1ccc(O)cc1)C(=O)N[C@H](C(=O)N[C@@H](CO)C(=O)N[C@@H](CC(C)C)C(=O)N[C@@H](CCCNC(=N)N)C(=O)N[C@@H](Cc1c[nH]cn1)C(=O)N[C@@H](Cc1ccc(O)cc1)C(=O)N[C@@H](Cc1ccc(O)cc1)C(=O)N[C@@H](CC(N)=O)C(=O)N[C@@H](Cc1c[nH]c2ccccc12)C(=O)N[C@@H](CC(C)C)C(=O)N[C@H](C(=O)N[C@@H](CCCNC(=N)N)C(=O)N[C@@H](CCC(N)=O)C(=O)N[C@@H](CCCNC(=N)N)C(=O)N[C@@H](Cc1ccc(O)cc1)C(N)=O)[C@@H](C)O)C(C)C)[C@@H](C)O
- Ki: 1.57 nM

B5: Compound 95 (peptide)
peptide: Isovaleryl-APEK([AEEA-AEEA-γGlu-C18 diacid])PEEDASPAEIQRYYVSLRHYYNWLTRQRY-NH2
SMILES: CC[C@H](C)[C@H](NC(=O)[C@H](CCC(=O)O)NC(=O)[C@H](C)NC(=O)[C@@H]1CCCN1C(=O)[C@H](CO)NC(=O)[C@H](C)NC(=O)[C@H](CC(=O)O)NC(=O)[C@H](CCC(=O)O)NC(=O)[C@H](CCC(=O)O)NC(=O)[C@@H]1CCCN1C(=O)[C@H](CCCCNC(=O)COCCOCCNC(=O)COCCOCCNC(=O)CC[C@H](NC(=O)CCCCCCCCCCCCCCCCC(=O)O)C(=O)O)NC(=O)[C@H](CCC(=O)O)NC(=O)[C@@H]1CCCN1C(=O)[C@H](C)NC(=O)CC(C)C)C(=O)N[C@@H](CCC(N)=O)C(=O)N[C@@H](CCCNC(=N)N)C(=O)N[C@@H](Cc1ccc(O)cc1)C(=O)N[C@@H](Cc1ccc(O)cc1)C(=O)N[C@H](C(=O)N[C@@H](CO)C(=O)N[C@@H](CC(C)C)C(=O)N[C@@H](CCCNC(=N)N)C(=O)N[C@@H](Cc1c[nH]cn1)C(=O)N[C@@H](Cc1ccc(O)cc1)C(=O)N[C@@H](Cc1ccc(O)cc1)C(=O)N[C@@H](CC(N)=O)C(=O)N[C@@H](Cc1c[nH]c2ccccc12)C(=O)N[C@@H](CC(C)C)C(=O)N[C@H](C(=O)N[C@@H](CCCNC(=N)N)C(=O)N[C@@H](CCC(N)=O)C(=O)N[C@@H](CCCNC(=N)N)C(=O)N[C@@H](Cc1ccc(O)cc1)C(N)=O)[C@@H](C)O)C(C)C
- Ki: 0.66 nM

B6: Compound 90 (peptide)
peptide: Isovaleryl-APEK([AEEA-AEEA-γGlu-C18 diacid])PEEDASPEELQRYEVSLRHYYNWLTRQRY-NH2
SMILES: CC(C)CC(=O)N[C@@H](C)C(=O)N1CCC[C@H]1C(=O)N[C@@H](CCC(=O)O)C(=O)N[C@@H](CCCCNC(=O)COCCOCCNC(=O)COCCOCCNC(=O)CC[C@H](NC(=O)CCCCCCCCCCCCCCCCC(=O)O)C(=O)O)C(=O)N1CCC[C@H]1C(=O)N[C@@H](CCC(=O)O)C(=O)N[C@@H](CCC(=O)O)C(=O)N[C@@H](CC(=O)O)C(=O)N[C@@H](C)C(=O)N[C@@H](CO)C(=O)N1CCC[C@H]1C(=O)N[C@@H](CCC(=O)O)C(=O)N[C@@H](CCC(=O)O)C(=O)N[C@@H](CC(C)C)C(=O)N[C@@H](CCC(N)=O)C(=O)N[C@@H](CCCNC(=N)N)C(=O)N[C@@H](Cc1ccc(O)cc1)C(=O)N[C@@H](CCC(=O)O)C(=O)N[C@H](C(=O)N[C@@H](CO)C(=O)N[C@@H](CC(C)C)C(=O)N[C@@H](CCCNC(=N)N)C(=O)N[C@@H](Cc1c[nH]cn1)C(=O)N[C@@H](Cc1ccc(O)cc1)C(=O)N[C@@H](Cc1ccc(O)cc1)C(=O)N[C@@H](CC(N)=O)C(=O)N[C@@H](Cc1c[nH]c2ccccc12)C(=O)N[C@@H](CC(C)C)C(=O)N[C@H](C(=O)N[C@@H](CCCNC(=N)N)C(=O)N[C@@H](CCC(N)=O)C(=O)N[C@@H](CCCNC(=N)N)C(=O)N[C@@H](Cc1ccc(O)cc1)C(N)=O)[C@@H](C)O)C(C)C
- Ki: 1.6 nM
